The values below come from US20250376501A1.

Holding throughout (assay): Gator BLI, hTSLP mutant from CHO cells against 3H10-biotin
Test [1] has as its target hTSLP-K135A (human) (UniProt Q969D9).
The target in test [2] is hTSLP-R55A (human) (UniProt Q969D9).
The target of test [3] is hTSLP-R131A (human) (UniProt Q969D9).
Test [4] has as its target hTSLP-D18A (human) (UniProt Q969D9).
In test [5] the target is hTSLP-N130A (human) (UniProt Q969D9).
In test [6] the target is hTSLP-K23A (human) (UniProt Q969D9).
For test [7], the target named is hTSLP-S43A (human) (UniProt Q969D9).
The target of test [8] is hTSLP-E20A (human) (UniProt Q969D9).
Test [9] has as its target hTSLP-L133A (human) (UniProt Q969D9).
In test [10] the target is hTSLP-R127A (human) (UniProt Q969D9).
For test [11], the target named is hTSLP-S28A (human) (UniProt Q969D9).
The target of test [12] is hTSLP-L27A (human) (UniProt Q969D9).
In test [13] the target is hTSLP-K32A (human) (UniProt Q969D9).
The target in test [14] is hTSLP-K21A (human) (UniProt Q969D9).
Chain of hTSLP-K21A (human) (Q969D9 29-159 R127A/R130A): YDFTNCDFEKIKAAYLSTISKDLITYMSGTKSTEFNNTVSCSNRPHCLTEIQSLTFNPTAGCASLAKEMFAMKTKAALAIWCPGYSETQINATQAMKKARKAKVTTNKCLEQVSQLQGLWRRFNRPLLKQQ

Chain of hTSLP-S43A (human) (Q969D9 29-159 R127A/R130A): as above
Chain of hTSLP-L27A (human) (Q969D9 29-159 R127A/R130A): as above
Chain of hTSLP-D18A (human) (Q969D9 29-159 R127A/R130A): as above
Chain of hTSLP-L133A (human) (Q969D9 29-159 R127A/R130A): as above
Chain of hTSLP-R131A (human) (Q969D9 29-159 R127A/R130A): as above
Chain of hTSLP-R127A (human) (Q969D9 29-159 R127A/R130A): as above
Chain of hTSLP-N130A (human) (Q969D9 29-159 R127A/R130A): as above
Chain of hTSLP-K23A (human) (Q969D9 29-159 R127A/R130A): as above
Chain of hTSLP-R55A (human) (Q969D9 29-159 R127A/R130A): as above
Chain of hTSLP-E20A (human) (Q969D9 29-159 R127A/R130A): as above
Chain of hTSLP-K135A (human) (Q969D9 29-159 R127A/R130A): as above
Chain of hTSLP-S28A (human) (Q969D9 29-159 R127A/R130A): as above
Chain of hTSLP-K32A (human) (Q969D9 29-159 R127A/R130A): as above

B1: 3H10-biotin protein (designed binder)
chain: GSHMDLGKKLLEAAWAGRDDEVRILMANGADVNAGDASGDTPLHLAAFSGHLEIVEVLLKHGADVNAEDLLGMTPLHLAAPFGHLEIVEVLLKHGADVNAAARNNGKTPLHLAAFVGHLEIVEVLLKNGADVNAQDKFGKTAFDISIDNGNEDLAEILQKLNG
modifications: biotin (site not stated)
As to B1, the Decreased fold in binding affinity compared to wild-type TSLP in [1] is 1.7 fold; in [2], 0.5 fold; in test [3], 2.1 fold; in test [4] it was 7.9 fold; in test [5], 2.2 fold; in test [6] it was 2.4 fold. For the same molecule, the Decreased fold in binding affinity compared to wild-type TSLP in test [7] was determined as 5 fold; in test [8] it was 6.1 fold; in [9], 2.05 fold; in test [10], 1.8 fold; in test [11], 5.1 fold; in [12] it was 9.3 fold. The Decreased fold in binding affinity compared to wild-type TSLP in test [13] is 1.2 fold; in [14], 11.9 fold.
